Assay results taken from US20250171549A1 (Amgen, published 2025).
Positions count from the first letter of the chain named. Names and notes keep the numbering of the source. Where no end group is shown, it is not given here.

B1: Antibody 5.0 IgG1 (antibody, V domains shown)
VH: QVQLVESGGGVVQPGRSLRLSCAASGFTFSSYGMHWVRQAPGKGLEWVAVISYDGSNKYYADSVKGRFTISRDNSKNTLYLQMNSLRAEDTAVYYCARGRYFDWFLFDYWGQGTLVTVSS
VL: DTVMTQTPLSLSVTPGQPASISCKSSQSLLHSDGKTYLFWYLQKPGQPPQLLISEVSNRFSGVPDRFSGSGSGTDFTLKISRVEAEDVGFYYCMQSLRLPLTFGGGTKVEIKR
B2: Antibody 6.0 IgG1 (antibody, V domains shown)
VH: QVQLVESGGGVVQPGRSLRLSCEASGFTFSSYVMHWVRQAPGKGLEWVSVISYDGSSQYYTDSVKGRFTISRDNSKNTLNLQMNSLRAEDTAVYYCVRGRLATAILFDYWGQGTLVTVSS
VL: B1 VL with T2I, V3L, H31Y, K44R, S54Y, F90I, L97I, R98K
B3: Antibody 3.0 IgG1 (antibody, V domains shown)
VH: EVQLVESGGGLVKPGGSLRLSCAASGFIFSNAWMSWVRQAPGKGLEWVARIKRRTDGGTTDYAAPVKDRFTISRDDSKNTLFLQMNSLKTEDTAVYYCTTVTMVRGVIADYWGQGTLVTVSS
VL: EIVLTQSPGTLSLSPGERATLSCRASQSVSSGSLAWYQQKLGQAPRLLIYGASSRATGIPDRFSGSGSGTDFTLTISSLEPEDFAVYYCQQYGSSRTFGQGTKVELKR
B4: Antibody 4.0 IgG1 (antibody, V domains shown)
VH: B3 VH with A49G, R54K, D68G, F82Y, Q84L, T90I, T100V, M103L, V107I, A109F
VL: B3 VL with R18S, A25V, G32S, S33Q, L41P, S78R, S94N, L106I
B5: Antibody 2.1 IgG1 (LC: F2I_P51S_H53Q_L103V_N148K, HC: K87N_S94N_V98A)(LC: Y25A_S26A, HC: A71I_D72R) (antibody, V domains shown)
VH: QVQLVESGGGVVQPGRSLRLSCAASGFTFSNYGMHWVRQAPGKGLEWVAVISYDGSNKFYIRSVKGRFTISRDNSKNTLYLQMNSLRAEDTAVYYCARAGGIGRFDYWGQGTLVTVSS
VL: B1 VL with T2I, S25A, S26A, P48S, S54Y, F90V, S96T, R98K
B6: Antibody 5.2 IgG1 (VH: G40P_F134T, VL: S57Y_E58L_V67R_F103V)_huIgG1z mAb (antibody, V domains shown)
VH: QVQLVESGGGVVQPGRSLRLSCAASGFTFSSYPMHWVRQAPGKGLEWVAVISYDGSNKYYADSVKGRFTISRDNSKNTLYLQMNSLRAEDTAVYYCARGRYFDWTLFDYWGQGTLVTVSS
VL: B1 VL with S54Y, E55L, V56R, F90V
B7: Antibody 6.1 IgG1 (VH: S67R_A114S_I134P, VL: F71L)_huIgG1z mAb (antibody, V domains shown)
VH: B2 VH with S57R, A104S, I105P
VL: B1 VL with T2I, V3L, H31Y, K44R, S54Y, F60L, F90I, L97I, R98K
B8: Antibody 5.5 IgG1 (VH: G40P_M41V, VL: S57Y_E58L_V67T_F103V)_huIgG1z mAb (antibody, V domains shown)
VH: B1 VH with G33P, M34V
VL: B1 VL with S54Y, E55L, V56T, F90V
B9: Antibody 5.1 IgG1 (VH: F134T, VL: S34R_S57Y_F103V)_huIgG1z mAb (antibody, V domains shown)
VH: B1 VH with F105T
VL: B1 VL with S32R, S54Y, F90V
B10: Antibody 5.3 IgG1 (VH: A71S_D72R, VL: S57Y_E58L_V67S_F103V)_huIgG1z mAb (antibody, V domains shown)
VH: B1 VH with A61S, D62R
VL: B1 VL with S54Y, E55L, V56S, F90V
B11: Antibody 5.4 IgG1 (VH: G40A, VL: S57Y_E58L_V67T_F103V)_huIgG1z mAb (antibody, V domains shown)
VH: B1 VH with G33A
VL: B1 VL with S54Y, E55L, V56T, F90V
B12: Antibody 6.2 IgG1 (VH: S67R_Q68A_L135K_F136L, VL: S109T_I110L)_huIgG1z mAb (antibody, V domains shown)
VH: B2 VH with S57R, Q58A, L106K, F107L
VL: B1 VL with T2I, V3L, H31Y, K44R, S54Y, F90I, S96T, R98K
B13: huCCR8_44379 (VH: D61S, VL: N67Q_M99G_W109F_S111A)_huIgG1z (mAb) (antibody, V domains shown)
VH: QVQLVESGGGVVQPGRSLRLSCAASGFTFSNYGFHWVRQTPGKGLEWVAVISYSGSNRYYADSVKGRFTISRDNSKNTLYLQMNSLRGEDTALYYCARVYYGSGTYYKNRYYYGMDVWGQGTTVTVSS
VL: SYELTQPPSVSVALGQTARITCGGHNIGSKGVHWYQQKPGQAPVLVIYRQSNRPSGIPERFSGSNSGNTATLTISGTQAGDEADYYCQAFDAGTVVFGGGTQLTVLG
notes: Engineered from scFv MPK20299-A4; afucosylated IgG1, HC without C-terminal lysine
B14: huCCR8_44379 (VH: D61A_D72A, VL: N67Q_M99E_W109F_S111A)_huIgG1z (mAb) (antibody, V domains shown)
VH: B13 VH with S54A, D62A
VL: B13 VL with G80E
notes: as for B13
B15: huCCR8_44379 (VH: D72S, VL: N67A_S68A_M99G_W109F_S111A)_huIgG1z (mAb) (antibody, V domains shown)
VH: B13 VH with S54D, D62S
VL: B13 VL with Q50A, S51A
notes: as for B13
B16: huCCR8(32360LC:K38R)_huIgG1z(mAb) (antibody, V domains shown)
VH: EVQLVESGGGLVKPGGSLRLSCAASGFTFSNARMGWVRQAPGKGLEWVGRIKSKTEGGTRDYAAPVKGRFTISRDDSKNTLYLQMNSLKTEDTAVYYCTSYSGVWGQGTMVTVSS
VL: not shown
notes: Afucosylated IgG1, HC without C-terminal lysine
B17: Fab (HCVR SEQ ID NO: 13; LCVR SEQ ID NO: 14) (Fab, V domains shown)
VH: B16 VH
VL: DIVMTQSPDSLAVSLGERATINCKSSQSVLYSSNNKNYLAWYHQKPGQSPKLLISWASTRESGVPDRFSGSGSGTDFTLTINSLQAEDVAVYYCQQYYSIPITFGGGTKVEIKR
notes: also called Antibody 1 Fab

Target: T1, human CCR8 (human, UniProt P51685 1-355)
T1 sequence (P51685 whole entry): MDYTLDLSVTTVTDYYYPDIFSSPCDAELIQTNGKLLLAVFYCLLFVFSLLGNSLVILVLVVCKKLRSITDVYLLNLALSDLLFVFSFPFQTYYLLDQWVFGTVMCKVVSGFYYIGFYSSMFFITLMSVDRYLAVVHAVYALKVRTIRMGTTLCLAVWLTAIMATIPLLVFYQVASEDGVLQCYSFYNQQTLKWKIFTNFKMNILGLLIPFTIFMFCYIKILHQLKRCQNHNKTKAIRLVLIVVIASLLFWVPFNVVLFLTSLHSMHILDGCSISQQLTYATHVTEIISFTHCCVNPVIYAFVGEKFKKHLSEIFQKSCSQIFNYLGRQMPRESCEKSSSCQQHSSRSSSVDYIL
Assay: cell-based or functional assay

Percent Inhibition (IC50 nM) of CCL1-dependent chemotaxis of HUT78 cells | Binder
13.6 nM | B1
20.1 nM | B2
3.7 nM | B3
8.4 nM | B4

Target: T1, human CCR8
Assay: cell-based or functional assay
Remark: another data set of the same source

Binder | ADCC, Percent Non-Viable cells (EC50 pM), Donor 1 | ADCC, Percent Non-Viable cells (EC50 pM), Donor 2 | ADCC, Percent Non-Viable cells (EC50 pM), Donor 3
B5 | < 0.256 pM | 13.3 pM | 1 pM
B1 | < 0.256 pM | 167 pM | 
B2 | 2 pM | 37.4 pM | 
B3 | < 0.256 pM | 15.5 pM | 
B4 | < 0.256 pM | 218 pM | 

Target: T1, human CCR8
Assay: cell-based or functional assay
Remark: another data set of the same source

Binder | ADCC, Percent Non-Viable cells (EC50 pM), Donor 4 | ADCC, Percent Non-Viable cells (EC50 pM), Donor 5 | ADCC, Percent Non-Viable cells (EC50 pM), Donor 6
B6 | 6.2 pM | 1.01 pM | 6.11 pM
B7 | 4.52 pM | 1.05 pM | 3.62 pM
B8 | 4.89 pM | 0.837 pM | 3.77 pM
B9 | 3.68 pM | 0.865 pM | 4.89 pM
B10 | 3.34 pM | 0.642 pM | 3.48 pM
B11 | 3.43 pM | 0.889 pM | 4.62 pM
B12 | 4.12 pM | 2.04 pM | 5.14 pM

Target: T1, human CCR8
Assay: cell-based or functional assay
Remark: another data set of the same source

Binder | ADCC, Percent Non-Viable cells (EC50 pM), Donor 7
B13 | 0.28 pM
B14 | 0.52 pM
B15 | 0.48 pM

Target: T1, human CCR8
Assay: cell-based or functional assay
Remark: another data set of the same source

Binder | ADCC, Percent Non-Viable cells (EC50 pM), Donor 8 | ADCC, Percent Non-Viable cells (EC50 pM), Donor 9
B16 | 3 pM | 2.7 pM

Target: T2, huCCR8 (1-12)-Nb (human, not fully specified (C-terminus); also: fused to nanobody, biotinylated in Fab assay)
T2 construct: Expressed in human cells; also called CCR8 peptide-Nb fusion; not shown: nanobody (Nb) fusion partner, any linker or tag to it, and the biotin site
T2 peptide: MDYTLDLSVTTV
Assay: BLI (Octet), mAb on anti-huIgG Fc sensor, peptide-Nb in solution
Experimental: (§1) Binding affinities (KD equilibrium dissociation constant) and rate constants (kₐ association rate constant, kd dissociation rate constant) of an Antibody 1 Fab and CCR8-binding monoclonal antibodies (mAbs) of the present invention to a CCR8 1-12 epitope (SEQ ID NO: 82)-nanobody (Nb) fusion protein were measured using an OCTET® Biolayer Interferometry system (Sartorius AG, Göttingen, Germany). The CCR8-nanobody fusion proteins were expressed in human cells. For Fab binding, biotinylated CCR8 peptide-Nb fusions were captured on streptavidin SAX biosensors to loading levels between 2 and 4 nm and then incubated with a dilution series of the soluble Fab (top 100 nM, 6-point, 1:3 serial dilution) for 300 seconds followed by 500 seconds in buffer for dissociation. For mAb binding, mAbs were captured on an anti-huIgG Fc capture biosensor to 1 to 2 nm loading level and then incubated with a dilution series of non-biotinylated CCR8 peptide-Nb fusions (top 100 nM, 6-point, 1:3 serial dilution) for 300 seconds followed by 500 seconds in buffer for dissociation.
(§2) The OCTET® system acquires data over time (seconds) using a mechanism called Biolayer Interferometry; as proteins bind to biosensor tips, a sensitive binding signal in nm is measured by the instrument. All fiber optic tips were used once and then discarded, i.e., no regeneration. OCTET® buffer baselines, dissociation steps, and protein dilutions were made with OCTET® buffer (10 mM TRIS pH 7.5, 150 mM NaCl, 1 mM CaCl₂), 0.13% (v/v) Triton X-100 and 0.10 mg/mL BSA).
(§3) Raw data was processed with GeneData Screener v18 SPR package which uses the same data processing as the OCTET® instrument Data Analysis software (subtract average of two reference wells per column; Align Y-axis to baseline; Interstep correction align to dissociation; and Savitzky-Golay filtering). Each Fab or mAb interaction was grouped into its own sensorgram and globally fit with a 1:1 binding model to determine the association rate constant (kₐ; units M⁻¹ sec⁻¹) and the dissociation rate constant (kd; units sec⁻¹).

Kd | koff | kon | Binder
8.1 nM | 0.00107 s⁻¹ | 132000 M⁻¹ s⁻¹ | B13
9.5 nM | 0.00134 s⁻¹ | 142000 M⁻¹ s⁻¹ | B14
9 nM | 0.0011 s⁻¹ | 122000 M⁻¹ s⁻¹ | B15
60.6 nM | 0.024 s⁻¹ | 397000 M⁻¹ s⁻¹ | B16

Target: T3, huCCR8 (1-25)[C25S]-Nb (human, not fully specified; biotinylated for the Fab assay, non-biotinylated for the mAb assay ; biotinylated when captured on streptavidin sensors (Fab assay); non-biotinylated in the mAb assay)
T3 construct: Expressed in human cells; also called CCR8 peptide-Nb fusion; not shown: nanobody (Nb) fusion partner, any linker or tag to it, and the biotin site
T3 peptide: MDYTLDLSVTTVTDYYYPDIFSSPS
Assay: as above

Kd | koff | kon | Binder
7.2 nM | 0.000798 s⁻¹ | 110000 M⁻¹ s⁻¹ | B13
7.8 nM | 0.00114 s⁻¹ | 146000 M⁻¹ s⁻¹ | B14
9.8 nM | 0.000975 s⁻¹ | 99300 M⁻¹ s⁻¹ | B15

Target: T2, huCCR8 (1-12)-Nb
Assay: BLI (Octet), biotinylated peptide-Nb on streptavidin sensor, Fab in solution
Experimental: as §1, §2, §3

Kd | koff | kon | Binder
22.6 nM | 0.0132 s⁻¹ | 584000 M⁻¹ s⁻¹ | B17

Target: T3, huCCR8 (1-25)[C25S]-Nb
Assay: as above

Kd | koff | kon | Binder
17.4 nM | 0.0106 s⁻¹ | 606000 M⁻¹ s⁻¹ | B17
